Article PMC3253074, “βB1-Crystallin: Thermodynamic Profiles of Molecular Interactions” (PLoS ONE, 2012)

B1: murine βB1-crystallin, wild type recombinant (natural protein, UniProt Q9WVJ5 1-250, looked up)
chain: MSQAAKASATTAVNPGPDGKGKGAPSTGPAPAPGPTPVPASVPRPAAKVGDLPPGSYRLIVFEQENFQGRRVEFSGECLNLGDRGFDRVRSLIVVSGPWVAFEQSAFRGEMFVLEKGEYPRWDTWTSSYRSDRLMSFRPIRMDSQEHKICLFEGANFKGNTMEIQEDDVPSLWVYGFCDRVGSITVSGGTWVGYQYPGYRGYQYLLEPGDFRHWNEWGAFQPQMQAVRRLRDRQWHQEGCFPVLTAEPPK
notes: βB1-crystallin, mouse, wild type recombinant; monomer printed as 28 kDa; source: E. coli, purified (ion-exchange and size-exclusion chromatography)
B2: murine βB1-crystallin (natural protein, UniProt Q9WVJ5 1-250, looked up)
chain: B1 chain
notes: βB1-crystallin, mouse, wild type recombinant; monomer 28 kDa as printed; source: E. coli, purified (ion-exchange and size-exclusion chromatography)
B3: human βA3-crystallin, wild type recombinant (natural protein, UniProt P05813 1-215, looked up)
chain: METQAEQQELETLPTTKMAQTNPTPGSLGPWKITIYDQENFQGKRMEFTSSCPNVSERSFDNVRSLKVESGAWIGYEHTSFCGQQFILERGEYPRWDAWSGSNAYHIERLMSFRPICSANHKESKMTIFEKENFIGRQWEISDDYPSLQAMGWFNNEVGSMKIQSGAWVCYQYPGYRGYQYILECDHHGGDYKHWREWGSHAQTSQIQSIRRIQQ
notes: βA3-crystallin, human, wild type recombinant; monomer printed as 25 kDa; source: E. coli, purified (ion-exchange and size-exclusion chromatography)
B4: βB1/βA3 heterodimer (murine βB1 with human βA3), the unit of the heterodimer-heterotetramer equilibrium (complex, murine | human)
chain 1: B1 chain
chain 2: B3 chain
notes: βB1-crystallin, mouse, wild type recombinant, as m1; βA3-crystallin, human, wild type recombinant, as m2; The heterodimer is the unit of the best-fit model; also called βB1/βA3 complex; [βB1/βA3]4 (the tetramer); source: equimolar mixture (~20 µM each) of the purified E. coli proteins, incubated 24 h
B5: βB1/βA3 heterodimer (murine βB1 with human βA3) (complex, murine | human)
chain 1: B1 chain
chain 2: B3 chain
notes: βB1-crystallin, mouse, wild type recombinant; as the chain of Wm1; βA3-crystallin, human, wild type recombinant; as the chain of Wm2; also called βB1/βA3 complex; source: equimolar mixture (~20 µM each) of βB1 and βA3 purified from E. coli, incubated at room temperature for 24 h
B6: human βA3-crystallin (natural protein, UniProt P05813 1-215, looked up)
chain: B3 chain
notes: βA3-crystallin, human, wild type recombinant; monomer 25 kDa as printed; source: E. coli, purified (ion-exchange and size-exclusion chromatography)

How the values were obtained:
[1] = target: the molecule itself; experiment: AUC; sedimentation equilibrium at 5°C increments over 5-30°C, 0.5 mg/ml, Buffer A pH 7.5; enthalpy from van't Hoff plots of ln(Kd/Co) against 1/T; dimer to monomers (βB1, βA3), heterotetramer to heterodimers (βB1/βA3)
[2] = target: the molecule itself; experiment: as above; remark: listed apart in the source
[3] = target: the molecule itself; experiment: AUC; sedimentation equilibrium, 18,500 rpm, 25 °C, Buffer A (50 mM Tris-HCl, 1 mM EDTA, 0.15 M NaCl, 1 mM TCEP, pH 7.5), 0.5 mg/ml; dimer to monomers
[4] = target: the molecule itself; experiment: AUC; sedimentation equilibrium, 18,500 rpm, 20 °C, Buffer A (50 mM Tris-HCl, 1 mM EDTA, 0.15 M NaCl, 1 mM TCEP, pH 7.5), 0.5 mg/ml; dimer to monomers
[5] = target: the molecule itself; experiment: AUC; sedimentation equilibrium, 18,500 rpm, 15 °C, Buffer A (50 mM Tris-HCl, 1 mM EDTA, 0.15 M NaCl, 1 mM TCEP, pH 7.5), 0.5 mg/ml; dimer to monomers
[6] = target: the molecule itself; experiment: AUC; sedimentation equilibrium, 18,500 rpm, 5 °C, Buffer A (50 mM Tris-HCl, 1 mM EDTA, 0.15 M NaCl, 1 mM TCEP, pH 7.5), 0.5 mg/ml; dimer to monomers
[7] = target: the molecule itself; experiment: AUC; sedimentation equilibrium, 18,500 rpm, 10 °C, Buffer A (50 mM Tris-HCl, 1 mM EDTA, 0.15 M NaCl, 1 mM TCEP, pH 7.5), 0.5 mg/ml; dimer to monomers
[8] = target: the molecule itself; experiment: AUC; sedimentation equilibrium, 18,500 rpm, 30 °C, Buffer A (50 mM Tris-HCl, 1 mM EDTA, 0.15 M NaCl, 1 mM TCEP, pH 7.5), 0.5 mg/ml; dimer to monomers
[9] = target: B1; experiment: SEC; equimolar mixture (~20 µM each) incubated 24 h, Superdex 75 HR10/30, Buffer A (50 mM Tris-HCl, 1 mM EDTA, 0.15 M NaCl, 1 mM TCEP, pH 7.5), 0.5 ml/min; conditions: both partners purified
[10] = target: the molecule itself; experiment: AUC; sedimentation equilibrium of the equimolar βB1/βA3 mixture, 18,500 rpm, 16 h, 20°C, Buffer A pH 7.5; heterotetramer to heterodimers
[11] = target: the molecule itself; experiment: AUC; sedimentation equilibrium of the equimolar βB1/βA3 mixture, 18,500 rpm, 15 °C, Buffer A pH 7.5, 0.5 mg/ml; heterotetramer to heterodimers
[12] = target: the molecule itself; experiment: AUC; sedimentation equilibrium of the equimolar βB1/βA3 mixture, 18,500 rpm, 30 °C, Buffer A pH 7.5, 0.5 mg/ml; heterotetramer to heterodimers
[13] = target: the molecule itself; experiment: AUC; sedimentation equilibrium of the equimolar βB1/βA3 mixture, 18,500 rpm, 10 °C, Buffer A pH 7.5, 0.5 mg/ml; heterotetramer to heterodimers
[14] = target: the molecule itself; experiment: AUC; sedimentation equilibrium of the equimolar βB1/βA3 mixture, 18,500 rpm, 25 °C, Buffer A pH 7.5, 0.5 mg/ml; heterotetramer to heterodimers
[15] = target: the molecule itself; experiment: AUC; sedimentation equilibrium of the equimolar βB1/βA3 mixture, 18,500 rpm, 5 °C, Buffer A pH 7.5, 0.5 mg/ml; heterotetramer to heterodimers

In the case of B1, the “dH (van't Hoff, ΔCp = 0)” value [1] is reported as -13.3 ± 5.6 kcal/mol, the “dH (van't Hoff, ΔCp nonzero)” value [1] is reported as -21.2 ± 4.6 kcal/mol and the “stoichiometry N” value [2] is reported as 2.

For B2, the Kd [3] was 12.6 µM, the Kd [4] was 4.71 µM and the Kd [5] was 1.91 µM. For the same binder, the Kd [6] was 3.99 µM, the Kd [7] was 1.64 µM and the Kd [8] was 17.6 µM.

With B3 the “dH (van't Hoff, ΔCp = 0)” value [1] was 8 ± 3 kcal/mol, the “dH (van't Hoff, ΔCp nonzero)” value [1] was 7.2 ± 2.5 kcal/mol and the binding result [9] was “binds”. The “stoichiometry N” value [2] was 2.

With B4 the “dH (van't Hoff, ΔCp = 0)” value [1] was -24.5 ± 6.2 kcal/mol, the “dH (van't Hoff, ΔCp nonzero)” value [1] was -29.6 ± 8.1 kcal/mol and the Kd [10] was 8.78 µM.

B5 was tested, and the Kd [11] was 1.14 µM, the Kd [12] was 22.1 µM and the Kd [13] was 0.54 µM. The Kd [14] was 12.8 µM and the Kd [15] was 1.21 µM.

Work on B6 yielded a Kd [3] of 1.62 µM, a Kd [4] of 5.21 µM and a Kd [5] of 5.32 µM. It also gave a Kd [6] of 11.8 µM, a Kd [7] of 6.47 µM and a Kd [8] of 2.07 µM.
